Experiments:
[1] = molecular target: T1, AFP158/HLA-A*02:01 complex (human); assay: SPR, fold vs AS170036 VL1VH1
T1 construct: flowed as analyte in SPR
Description: (§1) The experiment was carried out as follows. The crude scFv protein were captured onto the sensorchip. Different concentrations (320, 160, 40 nM) of AFP158/HLA-A*02:01 complex flowed over the sensorchip surface, and were allowed to bind the antibody fragment for 100 s followed by injection of the running buffer to allow dissociation of the complex. On-rate (kd) and off-rate (kd) were calculated based on association and dissociation curve, and were used to estimate the equilibrium dissociation constant (KD).

[2] = molecular target: T1, AFP158/HLA-A*02:01 complex; assay: SPR, crude scFv captured, pMHC analyte;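 note: Peptide-MHC complex at several concentrations passed over captured scFv, association then buffer-driven dissociation, on- and off-rates fitted from the curves and KD estimated from them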
Description: as §1

Row | Affinity increase [1] | Kd [2] | koff [2] | kon [2] | Binder
1 | 5.5 fold | 42 nM | 0.012 s⁻¹ | 290000 M⁻¹ s⁻¹ | AS170036 VL1VH1-VHG108A (scFv) scFv: QSALTQPRSVSGSPGQSVTISCAGTSSDVGSENYVSWYQQHPGKAPKLMIYQVNKRASGVPDRFSGSKSGNTASLTISGLQAEDEADYYCASYRSSDHNIVFGGGTKLTVLGGGGSGGGGSGGGGSEVQLVESGGGLVQPGGSLRLSCAASGFTFSSYAMSWVRQAPGKGLEWVSTINSGTGSPYYADSVKGRFTISRDNSKNTLYLQMNSLRAEDTAVYYCAKNFFDGSWFLAPPAMDYWGQGTLVTVSSHHHHHH
2 | 3.3 fold | 75 nM | 0.016 s⁻¹ | 220000 M⁻¹ s⁻¹ | AS170036 VL1VH1-VLH98Q (scFv) scFv: QSALTQPRSVSGSPGQSVTISCAGTSSDVGSENYVSWYQQHPGKAPKLMIYQVNKRASGVPDRFSGSKSGNTASLTISGLQAEDEADYYCASYRSSDQNIVFGGGTKLTVLGGGGSGGGGSGGGGSEVQLVESGGGLVQPGGSLRLSCAASGFTFSSYAMSWVRQAPGKGLEWVSTINSGTGSPYYADSVKGRFTISRDNSKNTLYLQMNSLRAEDTAVYYCAKNFFDGSWFLGPPAMDYWGQGTLVTVSSHHHHHH
3 | 2.7 fold | 90 nM | 0.025 s⁻¹ | 280000 M⁻¹ s⁻¹ | AS170036 VL1VH1-VHS57M (scFv) scFv: QSALTQPRSVSGSPGQSVTISCAGTSSDVGSENYVSWYQQHPGKAPKLMIYQVNKRASGVPDRFSGSKSGNTASLTISGLQAEDEADYYCASYRSSDHNIVFGGGTKLTVLGGGGSGGGGSGGGGSEVQLVESGGGLVQPGGSLRLSCAASGFTFSSYAMSWVRQAPGKGLEWVSTINSGTGMPYYADSVKGRFTISRDNSKNTLYLQMNSLRAEDTAVYYCAKNFFDGSWFLGPPAMDYWGQGTLVTVSSHHHHHH
4 | 2 fold | 140 nM | 0.045 s⁻¹ | 330000 M⁻¹ s⁻¹ | AS170036 VL1VH1-VHG108N (scFv) scFv: QSALTQPRSVSGSPGQSVTISCAGTSSDVGSENYVSWYQQHPGKAPKLMIYQVNKRASGVPDRFSGSKSGNTASLTISGLQAEDEADYYCASYRSSDHNIVFGGGTKLTVLGGGGSGGGGSGGGGSEVQLVESGGGLVQPGGSLRLSCAASGFTFSSYAMSWVRQAPGKGLEWVSTINSGTGSPYYADSVKGRFTISRDNSKNTLYLQMNSLRAEDTAVYYCAKNFFDGSWFLNPPAMDYWGQGTLVTVSSHHHHHH
5 | 2.3 fold | 110 nM | 0.027 s⁻¹ | 260000 M⁻¹ s⁻¹ | AS170036 VL1VH1-VLH98A (scFv) scFv: QSALTQPRSVSGSPGQSVTISCAGTSSDVGSENYVSWYQQHPGKAPKLMIYQVNKRASGVPDRFSGSKSGNTASLTISGLQAEDEADYYCASYRSSDANIVFGGGTKLTVLGGGGSGGGGSGGGGSEVQLVESGGGLVQPGGSLRLSCAASGFTFSSYAMSWVRQAPGKGLEWVSTINSGTGSPYYADSVKGRFTISRDNSKNTLYLQMNSLRAEDTAVYYCAKNFFDGSWFLGPPAMDYWGQGTLVTVSSHHHHHH
6 | 2.4 fold | 100 nM | 0.022 s⁻¹ | 210000 M⁻¹ s⁻¹ | AS170036 VL1VH1-VHS57Q (scFv) scFv: QSALTQPRSVSGSPGQSVTISCAGTSSDVGSENYVSWYQQHPGKAPKLMIYQVNKRASGVPDRFSGSKSGNTASLTISGLQAEDEADYYCASYRSSDHNIVFGGGTKLTVLGGGGSGGGGSGGGGSEVQLVESGGGLVQPGGSLRLSCAASGFTFSSYAMSWVRQAPGKGLEWVSTINSGTGQPYYADSVKGRFTISRDNSKNTLYLQMNSLRAEDTAVYYCAKNFFDGSWFLGPPAMDYWGQGTLVTVSSHHHHHH
7 | 2.8 fold | 96 nM | 0.026 s⁻¹ | 270000 M⁻¹ s⁻¹ | AS170036 VL1VH1-VHG108S (scFv) scFv: QSALTQPRSVSGSPGQSVTISCAGTSSDVGSENYVSWYQQHPGKAPKLMIYQVNKRASGVPDRFSGSKSGNTASLTISGLQAEDEADYYCASYRSSDHNIVFGGGTKLTVLGGGGSGGGGSGGGGSEVQLVESGGGLVQPGGSLRLSCAASGFTFSSYAMSWVRQAPGKGLEWVSTINSGTGSPYYADSVKGRFTISRDNSKNTLYLQMNSLRAEDTAVYYCAKNFFDGSWFLSPPAMDYWGQGTLVTVSSHHHHHH
8 | 4.1 fold | 56 nM | 0.02 s⁻¹ | 350000 M⁻¹ s⁻¹ | AS170036 VL1VH1-VHG108E (scFv) scFv: QSALTQPRSVSGSPGQSVTISCAGTSSDVGSENYVSWYQQHPGKAPKLMIYQVNKRASGVPDRFSGSKSGNTASLTISGLQAEDEADYYCASYRSSDHNIVFGGGTKLTVLGGGGSGGGGSGGGGSEVQLVESGGGLVQPGGSLRLSCAASGFTFSSYAMSWVRQAPGKGLEWVSTINSGTGSPYYADSVKGRFTISRDNSKNTLYLQMNSLRAEDTAVYYCAKNFFDGSWFLEPPAMDYWGQGTLVTVSSHHHHHH
9 | 4.4 fold | 56 nM | 0.0081 s⁻¹ | 150000 M⁻¹ s⁻¹ | AS170036 VL1VH1-VHS57K (scFv) scFv: QSALTQPRSVSGSPGQSVTISCAGTSSDVGSENYVSWYQQHPGKAPKLMIYQVNKRASGVPDRFSGSKSGNTASLTISGLQAEDEADYYCASYRSSDHNIVFGGGTKLTVLGGGGSGGGGSGGGGSEVQLVESGGGLVQPGGSLRLSCAASGFTFSSYAMSWVRQAPGKGLEWVSTINSGTGKPYYADSVKGRFTISRDNSKNTLYLQMNSLRAEDTAVYYCAKNFFDGSWFLGPPAMDYWGQGTLVTVSSHHHHHH
10 | 3.3 fold | 74 nM | 0.033 s⁻¹ | 450000 M⁻¹ s⁻¹ | AS170036 VL1VH1-VLH98F (scFv) scFv: QSALTQPRSVSGSPGQSVTISCAGTSSDVGSENYVSWYQQHPGKAPKLMIYQVNKRASGVPDRFSGSKSGNTASLTISGLQAEDEADYYCASYRSSDFNIVFGGGTKLTVLGGGGSGGGGSGGGGSEVQLVESGGGLVQPGGSLRLSCAASGFTFSSYAMSWVRQAPGKGLEWVSTINSGTGSPYYADSVKGRFTISRDNSKNTLYLQMNSLRAEDTAVYYCAKNFFDGSWFLGPPAMDYWGQGTLVTVSSHHHHHH
11 | 2.8 fold | 88 nM | 0.017 s⁻¹ | 200000 M⁻¹ s⁻¹ | AS170036 VL1VH1-VHS57R (scFv) scFv: QSALTQPRSVSGSPGQSVTISCAGTSSDVGSENYVSWYQQHPGKAPKLMIYQVNKRASGVPDRFSGSKSGNTASLTISGLQAEDEADYYCASYRSSDHNIVFGGGTKLTVLGGGGSGGGGSGGGGSEVQLVESGGGLVQPGGSLRLSCAASGFTFSSYAMSWVRQAPGKGLEWVSTINSGTGRPYYADSVKGRFTISRDNSKNTLYLQMNSLRAEDTAVYYCAKNFFDGSWFLGPPAMDYWGQGTLVTVSSHHHHHH
12 | 3.5 fold | 70 nM | 0.017 s⁻¹ | 240000 M⁻¹ s⁻¹ | AS170036 VL1VH1-VLH98P (scFv) scFv: QSALTQPRSVSGSPGQSVTISCAGTSSDVGSENYVSWYQQHPGKAPKLMIYQVNKRASGVPDRFSGSKSGNTASLTISGLQAEDEADYYCASYRSSDPNIVFGGGTKLTVLGGGGSGGGGSGGGGSEVQLVESGGGLVQPGGSLRLSCAASGFTFSSYAMSWVRQAPGKGLEWVSTINSGTGSPYYADSVKGRFTISRDNSKNTLYLQMNSLRAEDTAVYYCAKNFFDGSWFLGPPAMDYWGQGTLVTVSSHHHHHH
13 | 2.4 fold | 100 nM | 0.016 s⁻¹ | 150000 M⁻¹ s⁻¹ | AS170036 VL1VH1-VLE32W (scFv) scFv: QSALTQPRSVSGSPGQSVTISCAGTSSDVGSWNYVSWYQQHPGKAPKLMIYQVNKRASGVPDRFSGSKSGNTASLTISGLQAEDEADYYCASYRSSDHNIVFGGGTKLTVLGGGGSGGGGSGGGGSEVQLVESGGGLVQPGGSLRLSCAASGFTFSSYAMSWVRQAPGKGLEWVSTINSGTGSPYYADSVKGRFTISRDNSKNTLYLQMNSLRAEDTAVYYCAKNFFDGSWFLGPPAMDYWGQGTLVTVSSHHHHHH
14 | 3.1 fold | 78 nM | 0.018 s⁻¹ | 230000 M⁻¹ s⁻¹ | AS170036 VL1VH1-VLH98I (scFv) scFv: QSALTQPRSVSGSPGQSVTISCAGTSSDVGSENYVSWYQQHPGKAPKLMIYQVNKRASGVPDRFSGSKSGNTASLTISGLQAEDEADYYCASYRSSDINIVFGGGTKLTVLGGGGSGGGGSGGGGSEVQLVESGGGLVQPGGSLRLSCAASGFTFSSYAMSWVRQAPGKGLEWVSTINSGTGSPYYADSVKGRFTISRDNSKNTLYLQMNSLRAEDTAVYYCAKNFFDGSWFLGPPAMDYWGQGTLVTVSSHHHHHH
15 | 5.5 fold | 42 nM | 0.015 s⁻¹ | 370000 M⁻¹ s⁻¹ | AS170036 VL1VH1-VHG108D (scFv) scFv: QSALTQPRSVSGSPGQSVTISCAGTSSDVGSENYVSWYQQHPGKAPKLMIYQVNKRASGVPDRFSGSKSGNTASLTISGLQAEDEADYYCASYRSSDHNIVFGGGTKLTVLGGGGSGGGGSGGGGSEVQLVESGGGLVQPGGSLRLSCAASGFTFSSYAMSWVRQAPGKGLEWVSTINSGTGSPYYADSVKGRFTISRDNSKNTLYLQMNSLRAEDTAVYYCAKNFFDGSWFLDPPAMDYWGQGTLVTVSSHHHHHH
16 | 6.9 fold | 35 nM | 0.0061 s⁻¹ | 170000 M⁻¹ s⁻¹ | AS170036 VL1VH1-VHS57H (scFv) scFv: QSALTQPRSVSGSPGQSVTISCAGTSSDVGSENYVSWYQQHPGKAPKLMIYQVNKRASGVPDRFSGSKSGNTASLTISGLQAEDEADYYCASYRSSDHNIVFGGGTKLTVLGGGGSGGGGSGGGGSEVQLVESGGGLVQPGGSLRLSCAASGFTFSSYAMSWVRQAPGKGLEWVSTINSGTGHPYYADSVKGRFTISRDNSKNTLYLQMNSLRAEDTAVYYCAKNFFDGSWFLGPPAMDYWGQGTLVTVSSHHHHHH
17 | 4.7 fold | 58 nM | 0.013 s⁻¹ | 220000 M⁻¹ s⁻¹ | AS170036 VL1VH1-VHG108M (scFv) scFv: QSALTQPRSVSGSPGQSVTISCAGTSSDVGSENYVSWYQQHPGKAPKLMIYQVNKRASGVPDRFSGSKSGNTASLTISGLQAEDEADYYCASYRSSDHNIVFGGGTKLTVLGGGGSGGGGSGGGGSEVQLVESGGGLVQPGGSLRLSCAASGFTFSSYAMSWVRQAPGKGLEWVSTINSGTGSPYYADSVKGRFTISRDNSKNTLYLQMNSLRAEDTAVYYCAKNFFDGSWFLMPPAMDYWGQGTLVTVSSHHHHHH
